In article PMC4388271 (Acta Crystallographica Section D: Biological Crystallography, 2015):

Tests used:
[1] = biological target: T1, YpTesB (TesB acyl-CoA thioesterase from Y. pestis) (Yersinia pestis, UniProt A0A3N4BCC7); conditions: 100 mM phosphate pH 8.0, 0.1 mM DTNB
[2] = biological target: T1, YpTesB (TesB acyl-CoA thioesterase from Y. pestis); conditions: 2.2 A; crystals grown with 1 mM octanoyl-CoA, sodium malonate pH 7.0; CoA between two adjacent chains, in two of four sites
[3] = biological target: TesB acyl-CoA thioesterase from Yersinia pestis (Yersinia pestis); assay: SEC
[4] = biological target: TesB acyl-CoA thioesterase from Yersinia pestis (Yersinia pestis); assay: small-angle X-ray scattering (SAXS)
[5] = biological target: TesB acyl-CoA thioesterase from Yersinia pestis (Yersinia pestis); assay: crystal structure
[6] = biological target: TesB acyl-CoA thioesterase from Yersinia pestis (Yersinia pestis); assay: AUC

CCCCCCCCCC(=O)SCCNC(=O)CCNC(=O)[C@H](O)C(C)(C)COP(=O)(O)OP(=O)(O)OC[C@H]1O[C@@H](n2cnc3c(N)ncnc32)[C@H](O)[C@@H]1OP(=O)(O)O [C10, decanoyl-CoA]
DTNB assay of released thiol, 412 nm [1]: The highest activity was exhibited towards medium-chain acyl-CoAs (C6–C10)

CC(C)(COP(=O)(O)OP(=O)(O)OC[C@H]1O[C@@H](n2cnc3c(N)ncnc32)[C@H](O)[C@@H]1OP(=O)(O)O)[C@@H](O)C(=O)NCCC(=O)NCCS [CoA]
X-ray crystallography [2]: revealing the same quaternary arrangement of domains as the apo form with density for two CoA molecules

TesB acyl-CoA thioesterase from Yersinia pestis (enzyme)
stoichiometry N [3]: 4
stoichiometry N [4]: 4
stoichiometry N [5]: 4
stoichiometry N [6]: 4
